In US6428967 (University of Texas, dated 2002):
Values belong to the binder of their own block, whether it stands above or below them.

Tests used:
PSD-95 = biological target: T1, PSD-95 (mouse, UniProt Q62108 1-724); assay: yeast two-hybrid, LexA tail bait against prey
T1 construct: Yeast two-hybrid prey clone; also called postsynaptic density-95; postsynaptic density protein PSD-95
Protocol: (§1) PCR products were subcloned into the EcoRI and NcoI sites of pLexA for the Megalin and VLDL Receptor, and into EcoRI and BarnHI sites for the other receptors. […] All constructs were sequenced after cloning, and all bait vectors were tested for self-activation. Bait and prey vectors were cotransfected into yeast cells (leucine auxotrophic strain EGY48) using the LiAc method as described in the […] manual (CLONTECH). The two-hybrid assay used two reporters (LEU2 and lacZ) under the control of LexA operators. Cells were spread on selective plates (His-;Leu-;Trp-) and grown for 3 days. Single clones were grown on selective plates in patches and harvested after 2–3 days. To recover DNA from yeast, cells were resuspended in 50 μl STES (0.5M NaCl, 0.2M Tris-HCl pH 7.6, 0.01M EDTA, 1% SDS). Glass beads were added and the cells vortexed vigorously. After addition of 20 μl H2O and 60 μl phenol/chloroform cells were vortexed for 1 more minute and centrifuged (14,000×g, 5 min). The aqueous phase was collected and the DNA was precipitated with EtOH. DNA from positive clones was retransformed into DH5α and checked by DNA sequencing. Yeast mating was performed after transformation of LexA plasmids into the yeast strain YM4271 following the instructions in the […] manual (CLONTECH).
(§2) The ApoER2 tail was tested with (+) and without (−) its alternatively spliced insert. For Megalin and for LRP the complete tails and parts thereof containing a single NPxY motif were tested separately.

[1] = biological target: T2, Disabled-1 (Dab1), two-hybrid prey in pB42AD (UniProt P97318-2 1-555); assay: yeast two-hybrid, LexA tail bait against B42AD-Dab1
T2 sequence (looked up): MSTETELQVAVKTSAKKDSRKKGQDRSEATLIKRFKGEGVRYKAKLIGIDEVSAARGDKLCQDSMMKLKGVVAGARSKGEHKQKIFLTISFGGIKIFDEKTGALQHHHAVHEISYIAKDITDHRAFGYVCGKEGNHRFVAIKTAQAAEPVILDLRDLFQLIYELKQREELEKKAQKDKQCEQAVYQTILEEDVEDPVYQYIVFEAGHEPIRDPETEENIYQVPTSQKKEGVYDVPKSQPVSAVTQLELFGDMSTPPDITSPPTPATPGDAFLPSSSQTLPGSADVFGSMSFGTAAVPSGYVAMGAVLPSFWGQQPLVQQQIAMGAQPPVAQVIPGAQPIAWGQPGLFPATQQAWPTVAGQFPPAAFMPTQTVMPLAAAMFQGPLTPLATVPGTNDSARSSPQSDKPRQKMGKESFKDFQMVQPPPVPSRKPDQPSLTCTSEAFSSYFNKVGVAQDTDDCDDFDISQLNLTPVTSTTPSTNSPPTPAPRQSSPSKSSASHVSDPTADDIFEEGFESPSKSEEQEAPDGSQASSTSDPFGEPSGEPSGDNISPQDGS
Protocol: as §1, with “All LDL receptor family cytoplasmic tail LexA fusion proteins were constructed using the pLexA vector ([…] system, CLONTECH). […] PCR” for “PCR”
as §2

JIP-1 = biological target: T3, JIP-1 (mouse, UniProt Q9WVI9 1-707); assay: yeast two-hybrid, LexA tail bait against prey
T3 construct: Yeast two-hybrid prey clone; also called meg11
T3 sequence: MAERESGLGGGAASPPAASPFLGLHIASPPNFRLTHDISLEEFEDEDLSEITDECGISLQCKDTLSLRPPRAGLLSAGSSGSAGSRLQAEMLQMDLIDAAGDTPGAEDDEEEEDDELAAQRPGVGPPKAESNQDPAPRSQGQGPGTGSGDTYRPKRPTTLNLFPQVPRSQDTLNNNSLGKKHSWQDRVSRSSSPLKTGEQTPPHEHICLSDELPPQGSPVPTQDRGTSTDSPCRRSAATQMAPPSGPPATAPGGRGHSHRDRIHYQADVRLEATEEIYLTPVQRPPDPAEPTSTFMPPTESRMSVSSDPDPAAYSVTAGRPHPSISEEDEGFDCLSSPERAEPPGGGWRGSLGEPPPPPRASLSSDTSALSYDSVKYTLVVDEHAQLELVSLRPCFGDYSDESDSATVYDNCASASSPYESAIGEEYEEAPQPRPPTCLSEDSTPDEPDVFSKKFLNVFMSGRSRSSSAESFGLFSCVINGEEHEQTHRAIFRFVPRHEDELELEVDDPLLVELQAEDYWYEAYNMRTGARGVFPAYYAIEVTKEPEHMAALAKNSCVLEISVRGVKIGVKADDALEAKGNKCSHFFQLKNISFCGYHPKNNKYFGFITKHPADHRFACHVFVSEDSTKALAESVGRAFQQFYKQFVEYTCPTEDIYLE
Protocol: as §1, §2

T1 sequence (Q62108 whole entry): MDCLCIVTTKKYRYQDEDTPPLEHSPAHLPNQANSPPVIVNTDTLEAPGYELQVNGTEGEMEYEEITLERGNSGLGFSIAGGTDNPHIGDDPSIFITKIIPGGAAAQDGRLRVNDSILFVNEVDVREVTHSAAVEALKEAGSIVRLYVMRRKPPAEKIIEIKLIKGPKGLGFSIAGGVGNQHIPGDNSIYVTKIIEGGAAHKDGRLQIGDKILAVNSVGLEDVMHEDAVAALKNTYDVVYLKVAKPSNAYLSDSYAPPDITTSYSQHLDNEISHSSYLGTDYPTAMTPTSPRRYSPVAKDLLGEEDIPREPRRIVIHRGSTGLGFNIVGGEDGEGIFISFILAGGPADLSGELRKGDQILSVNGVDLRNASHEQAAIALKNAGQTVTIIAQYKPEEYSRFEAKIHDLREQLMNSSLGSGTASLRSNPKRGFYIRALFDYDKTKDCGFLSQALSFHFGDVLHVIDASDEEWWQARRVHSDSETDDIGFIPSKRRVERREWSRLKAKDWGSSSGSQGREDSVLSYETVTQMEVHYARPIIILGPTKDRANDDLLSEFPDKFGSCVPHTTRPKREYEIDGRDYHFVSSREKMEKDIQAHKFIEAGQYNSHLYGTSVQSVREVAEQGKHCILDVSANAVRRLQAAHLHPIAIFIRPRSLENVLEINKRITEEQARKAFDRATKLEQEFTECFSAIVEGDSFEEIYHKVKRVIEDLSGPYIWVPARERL

B1: ApoER2 cytoplasmic tail with its alternatively spliced insert, LexA fusion protein (ApoER2+ mouse) (receptor, not shown: large carriers)
chain: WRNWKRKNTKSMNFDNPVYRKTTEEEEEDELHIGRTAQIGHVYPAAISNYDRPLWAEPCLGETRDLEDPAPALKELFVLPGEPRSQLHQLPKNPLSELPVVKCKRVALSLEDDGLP
notes: LexA fusion bait of the two-hybrid assay; also called the ApoER2 tail containing the alternatively spliced insert
binding result (PSD-95): binds

B2: MegC, part of the Megalin cytoplasmic tail, LexA fusion protein (MegC human) (receptor, not shown: large carriers)
chain: GSPINPSEIVPETNPTSPAADGTQVTKWNLFKRKSKQTTNFENPIYAQMENEQKESVAATPPPSPSLPAKPKPPSRRDPTPTYSATEDTFKDTANLVKEDSEV
notes: LexA fusion bait of the two-hybrid assay
binding result [1]: no binding

B3: MegB, part of the Megalin cytoplasmic tail, LexA fusion protein (MegB human) (receptor, not shown: small tags and cut ends)
chain: SARDSAVKVVQPIQVTVSENVDNKNYGSPINPSEIVPETNPTSPAADGTQVTKWNLFKRKSKQTTNFE
notes: WARNING: the listing's entry 129 (76 residues) begins like the LRP entries 130 and 132, while entry 131 (68 residues) is a stretch of the Megalin entry 127; entries 129 and 131 look exchanged, so MegB is probably entry 131
binding result [1]: no binding

Next, values leading:

binding result (PSD-95): no binding | binding result (JIP-1): no binding
B4: ApoER2 cytoplasmic tail without its alternatively spliced insert, LexA fusion protein (ApoER2- mouse) (receptor, not shown: large carriers)
chain: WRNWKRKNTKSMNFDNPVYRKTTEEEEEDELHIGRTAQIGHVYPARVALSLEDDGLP
notes: LexA fusion bait of the two-hybrid assay; also called the tail without this insert

binding result [1]: no binding
B5: LRPA, part of the LRP cytoplasmic tail, LexA fusion protein (LRPA human) (receptor, not shown: large carriers)
chain: VQGAKGFQHQRMTNGAMNVEIGNPTYKMYEGGEPDDVG
notes: as for B2
